Experimental data: patent publication US8822165B2, “Method for producing cAMP using chimeric olfactory receptor” (Panasonic Corporation, priority 2010, dated 2014)

B1: chimeraOlfr168: Rho-myc-Olfr168 where the IC4 domain was substituted with that of the beta-1 adrenergic receptor (protein)
chain: MNGTEGPNFYVPFSNKTGVVEQKLISEEDLEFMEKWNQSSSDFILLGLLPQNQTGLLLMMLIILVFFLALFGNSAMIHLIRVDPRLHTPMYFLLSQLSLMDLMYISTTVPKMAFNFLSGQKNISFLGCGVQSFFFLTMAGSEGLLLASMAYDRFVAICHPLHYPIRMSKIMCLKMIIGSWILGSINSLAHSIYALHIPYCHSRSINHFFCDVPAMLPLACMDTWVYEYMVFVSTSLFLLLPFLGITASYGRVLFAVFHMRSKEGKKKAFTTCSTHLTVVTFYYAPFVYTYLRPRSLRSPTEDKILTVFYTILTPMLNPIIYSLRNKDFRKAFQRLLCCARRAACRRRAAHGDRPRASGCLARAGPPPSPGAPSDDDDDDAGATPPARLLEPWAGCNGGTTTVDSDSSLDEPGRQGFSSESKV
modifications: ChimeraOlfr168
notes: Rho-myc-Olfr168 where the IC4 domain was substituted with that of the beta-1 adrenergic receptor
B2: Rho-myc-Olfr168: Rho-tag, myc epitope tag and EC1-IC4 domains of the Olfr168, mouse olfactory receptor for 2-pentanone (protein)
chain: MNGTEGPNFYVPFSNKTGVVEQKLISEEDLEFMEKWNQSSSDFILLGLLPQNQTGLLLMMLIILVFFLALFGNSAMIHLIRVDPRLHTPMYFLLSQLSLMDLMYISTTVPKMAFNFLSGQKNISFLGCGVQSFFFLTMAGSEGLLLASMAYDRFVAICHPLHYPIRMSKIMCLKMIIGSWILGSINSLAHSIYALHIPYCHSRSINHFFCDVPAMLPLACMDTWVYEYMVFVSTSLFLLLPFLGITASYGRVLFAVFHMRSKEGKKKAFTTCSTHLTVVTFYYAPFVYTYLRPRSLRSPTEDKILTVFYTILTPMLNPIIYSLRNKEVLGAMTRVLGTFSSMKP
modifications: Rho-myc-olfr168

Tested on: HEK293T cells
Assay: cAMP production by Olfr168-derived receptors expressed in HEK293T cells, 2-pentanone as agonist (Experiment 2)
Assay type: cell-based
Method: Subsequently, the HEK293T cells were transfected with the above-mentioned three plasmids by a lipofection method. The HEK293T cells were incubated for 48 hours, and the β1AR consisting of the protein represented by SEQ ID NO: 03 was expressed on the cell membrane of the HEK293T cell.
The abbreviation “IBMX” means 3-isobutyl-1-methylxanthine. The IBMX is one of the phosphodiesterase inhibitors. The IBMX stabilizes cAMP, which is unstable.
The expression was conducted similarly to that of the step 2 of the reference example 1 except that the plasmid (Rho-myc-Olfr168) was used instead of the plasmid (β1AR). In this way, the Rho-myc-Olfr168 (SEQ ID NO: 49) was expressed on a cell membrane.
The concentrations of the cAMP were measured similarly to the step 3 of the comparative example 1-1 except that 2-pentanone aqueous solutions having concentrations of 30 μM, 100 μM, 300 μM, 1000 μM, and 3000 μM were used as agonists instead of the eugenol aqueous solutions.
The expression was conducted similarly to that of the step 2 of the reference example 1 except that the plasmid (chimeraOlfr168) was used instead of the plasmid (β1AR). In this way, the chimeraOlfr168 (SEQ ID NO: 51) was expressed on a cell membrane.
The concentrations of the cAMP were measured similarly to the step 3 of the comparative example 2-1.

| Molecule | concentration of the cAMP (2-pentanone 0 μM) | concentration of the cAMP (2-pentanone 30 μM) | concentration of the cAMP (2-pentanone 100 μM) | concentration of the cAMP (2-pentanone 300 μM) | concentration of the cAMP (2-pentanone 1000 μM) | concentration of the cAMP (2-pentanone 3000 μM) | concentration of the cAMP compared with Rho-myc-Olfr168 (in words) (2-pentanone, Table 6) |
| --- | --- | --- | --- | --- | --- | --- | --- |
| B1 | 0.0187 | 0.0220 | 0.0270 | 0.0520 | 0.0775 | 0.0916 | much greater |
| B2 | 0.0215 | 0.0170 | 0.0170 | 0.0280 | 0.0400 | 0.0444 | – |
